From US20260232801A1 (published 2026) come the findings set out here.

Changes are numbered by the printed parent chain.

For assay [1], the target named is T1, TP53 wild-type peptide on HLA-A*02:01 (human).
T1 peptide: HMTEVVRRC
Put plainly: cytokine release.

Assay [2] has as its target T2, TP53 R175H peptide on HLA-A*02:01 (human).
T2 peptide: HMTEVVRHC
Put plainly: multimer staining.

B1: TCR 1C (TCR, V domains shown)
Valpha: DQQVKQNSPSLSVQEGRISILNCDYTNSMFDYFLWYKKYPAEGPTFLISISSIKDKNEDGRFTVFLNKSAKHLSLHIVPSQPGDSAVYFCAATVGLAGNMLTFGGGTRLMVKP
Vbeta: DSGVTQTPKHLITATGQRVTLRCSPRSGDLSVYWYQQSLDQGLQFLIQYYNGEERAKGNILERFSAQQFPDLHSELNLSSLELGDSALYFCASSTPLSGSSTDTQYFGPGTRLTVL
Turning to B1, the binding result in assay [1] was “no recognition”; in assay [2], “recognises”.

B2: TCR 1D (TCR, V domains shown)
Valpha: EDQVTQSPEALRLQEGESSSLNCSYTVSGLRGLFWYRQDPGKGPEFLFTLYSAGEEKEKERLKATLTKKESFLHITAPKPEDSATYLCAVHSNYQLIWGAGTKLIIKP
Vbeta: B1 Vbeta with Q48H, S98R, G99T, S100R, S101G
For B2, the binding result was “no recognition” in assay [1] and “recognises” in assay [2].

B3: TCR 7D (TCR, V domains shown)
Valpha: QKEVEQDPGPLSVPEGAIVSLNCTYSNSAFQYFMWYRQYSRKGPELLMYTYSSGNKEDGRFTAQVDKSSKYISLFIRDSQPSDSATYLCASSFSGYNKLIFGAGTRLAVHP
Vbeta: B1 Vbeta with T95E, P96R, S98A, S100A, S101I, T102A
On to B3, for which the binding result is “no recognition” in assay [1] and “recognises” in assay [2].

B4: TCR 7A (TCR, V domains shown)
Valpha: AQKVTQAQTEISVVEKEDVTLDCVYETRDTTYYLFWYKQPPSGELVFLIRRNSFDEQNEISGRYSWNFQKSTSSFNFTITASQVVDSAVYFCALRNSGNTPLVFGKGTRLSVIA
Vbeta: DSGVTQTPKHLITATGQRVTLRCSPRSGDLSVYWYQQSLDQGLQFLIQYYNGEERAKGNILERFSAQQFPDLHSELNLSSLELGDSALYFCASSVDWVQETQYFGPGTRLLVL
For B4, the results for the binding result in assay [1] and in assay [2] were “no recognition” and “recognises”, respectively.

B5: TCR 1B (TCR, V domains shown)
Valpha: AQKITQTQPGMFVQEKEAVTLDCTYDTSDPSYGLFWYKQPSSGEMIFLIYQGSYDQQNATEGRYSLNFQKARKSANLVISASQLGDSAMYFCAMREGFSGGYNKLIFGAGTRLAVHP
Vbeta: DAGVTQSPTHLIKTRGQQVTLRCSPISGHKSVSWYQQVLGQGPQFIFQYYEKEERGRGNFPDRFSARQFPNYSSELNVNALLLGDSALYLCASSDDTGTTKSSGANVLTFGAGSRLTVL
Regarding B5, the binding result in assay [1] was “no recognition”; in assay [2] it was “recognises”.

B6: TCR 8A (TCR, V domains shown)
Valpha: AQSVAQPEDQVNVAEGNPLTVKCTYSVSGNPYLFWYVQYPNRGLQFLLKYITGDNLVKGSYGFEAEFNKSQTSFHLKKPSALVSDSALYFCAVRAPGNTPLVFGKGTRLSVIA
Vbeta: DTAVSQTPKYLVTQMGNDKSIKCEQNLGHDTMYWYKQDSKKFLKIMFSYNNKELIINETVPNRFSPKSPDKAHLNLHINSLELGDSAVYFCASSQDLGFDEKLFFGSGTQLSVL
Consider B6, for which the binding result in assay [1] is “no recognition”; in assay [2] it was “recognises”.

B7: TCR 3B (TCR, V domains shown)
Valpha: AQKITQTQPGMFVQEKEAVTLDCTYDTSDQSYGLFWYKQPSSGEMIFLIYQGSYDEQNATEGRYSLNFQKARKSANLVISASQLGDSAMYFCAMREGRGRRALTFGSGTRLQVQP
Vbeta: ETGVTQTPRHLVMGMTNKKSLKCEQHLGHNAMYWYKQSAKKPLELMFVYSLEERVENNSVPSRFSPECPNSSHLFLHLHTLQPEDSALYLCASSQDTAWDSGGETDTQYFGPGTRLTVL
In the case of B7, the binding result is “no recognition” in assay [1] and “recognises” in assay [2].

B8: TCR 4A (TCR, V domains shown)
Valpha: AQTVTQSQPEMSVQEAETVTLSCTYDTSESNYYLFWYKQPPSRQMILVIRQEAYKQQNATENRFSVNFQKAAKSFSLKISDSQLGDTAMYFCAFMKWQGGSEKLVFGKGTKLTVNP
Vbeta: DTAVSQTPKYLVTQMGNDKSIKCEQNLGHDTMYWYKQDSKKFLKIMFSYNNKELIINETVPNRFSPKSPDKAHLNLHINSLELGDSAVYFCASSQALAGEVDTQYFGPGTRLTVL
Consider B8, for which the figures for the binding result in assay [1] and in assay [2] were “no recognition” and “recognises”, respectively.

B9: TCR 7B (TCR, V domains shown)
Valpha: DAKTTQPTSMDCAEGRAANLPCNHSTISGNEYVYWYRQIHSQGPQYIIHGLKNNETNEMASLIITEDRKSSTLILPHATLRDTAVYYCIVPRGFSNTGKLIFGQGTTLQVKP
Vbeta: GAVVSQHPSRVICKSGTSVKIECRSLDFQATTMFWYRQFPKQSLMLMATSNEGSKATYEQGVEKDKFLINHASLTLSTLTVTSAHPEDSSFYICSASESLALASEQYFGPGTRLTVT
Turning to B9, the binding result was “no recognition” in assay [1] and “recognises” in assay [2].

B10: TCR 3C (TCR, V domains shown)
Valpha: GEDVEQSLFLSVREGDSSVINCTYTDSSSTYLYWYKQEPGAGLQLLTYIFSNMDMKQDQRLTVLLNKKDKHLSLRIADTQTGDSAIYFCAEGYGGKLIFGQGTELSVKP
Vbeta: GAGVSQTPSNKVTEKGKYVELRCDPISGHTALYWYRQSLGQGPEFLIYFQGTGAADDSGLPNDRFFAVRPEGSVSTLKIQRTERGDSAVYLCASSSKTGVVGEQFFGPGTRLTVL
With B10, the binding result in assay [1] is “no recognition”; in assay [2], “recognises”.

B11: TCR 1A (TCR, V domains shown)
Valpha: SQQGEEDPQALSIQEGENATMNCSYKTSINNLQWYRQNSGRGLVHLILIRSNEREKHSGRLRVTLDTSKKSSSLLITASRAADTASYFCATGSNYGGSQGNLIFGKGTKLSVKP
Vbeta: EAGVAQSPRYKIIEKRQSVAFWCNPISGHATLYWYQQILGQGPKLLIQFQNNGVVDDSQLPKDRFSAERLKGVDSTLKIQPAKLEDSAVYLCASSLDYGSSYEQYFGPGTRLTVT
As for B11, the binding result in assay [1] is recorded as “no recognition”; in assay [2] it was “recognises”.

B12: TCR 3A (TCR, V domains shown)
Valpha: GEDVEQSLFLSVREGDSSVINCTYTDSSSTYLYWYKQEPGAGLQLLTYIFSNMDMKQDQRLTVLLNKKDKHLSLRIADTQTGDSAIYFCAEISANQAGTALIFGKGTTLSVSS
Vbeta: DTGVSQNPRHKITKRGQNVTFRCDPISEHNRLYWYRQTLGQGPEFLTYFQNEAQLEKSRLLSDRFSAERPKGSFSTLEIQRTEQGDSAMYLCASSPLDSYQETQYFGPGTRLLVL
For the molecule B12, the binding result in assay [1] is recorded as “no recognition”; in assay [2], “recognises”.
